Test results reported in paper doi:10.1101/2022.02.14.480394 (bioRxiv, 2022).

Target: Receptor Binding-Domain (RBD) of SARS-CoV-2 Spike (S) protein, Wuhan-Hu-1 (SARS-CoV-2, UniProt P0DTC2)
Assay: BLI

Row | Binder | binding result
1 | C105 (antibody, V domains shown) VH: QVQLVESGGGLIQPGGSLRLSCAASGFTVSSNYMSWVRQAPGKGLEWVSVIYSGGSTYYADSVKGRFTISRDNSKNTLYLQMNSLRAEDTAVYYCARGEGWELPYDYWGQGTLVTVSS VL: QSALTQPPSASGSPGQSVTISCTGTSSDVGGYKYVSWYQQHPGKAPKLMIYEVSKRPSGVPDRFSGSKSGNTASLTVSGLQAEDEADYYCSSYEGSNNFVVFGGGTKLTVL | binds
2 | C118 (antibody, V domains shown) VH: QVQLVESGGGVVQPGRSLRLSCAASGFTFSNYAMHWVRQAPGKGLEWVAVISYDGSNKYYADSVKGRFTISRDNSKNTLYLQMNSLRAEDTAIYYCASGYTGYDYFVRGDYYGLDVWGQGTTVTVSS VL: QPVLTQSPSASASLGASVKLTCTLSSGHSSYAIAWHQQQPEKGPRYLMKLNTDGSHSKGDGIPDRFSGSSSGAERYLTISSLQSEDEADYYCQTWGTGILVFGGGTKLTVL | binds
